Assay results taken from article PMC9372435, “Peptide Centric Vβ Specific Germline Contacts Shape a Specialist T Cell Response” (Frontiers in Immunology, 2022).

What follows are substances tested on tetramer+ CD8 T cells (assay: Immunization with peptide-loaded dendritic cells, expansion of tetramer+ CD8 T cells). Conditions: F1 (H2^bxd) mice, 5x10^6 dendritic cells loaded with 1μM peptide s.c., spleen 7 days post immunization, versus numbers in naive mice.
Assay type: in vivo
Protocol: Bone marrow-derived dendritic cells from male mice were incubated with 1μM of peptide for 3 hours at 37°C. Cells were washed and 5x10^6 peptide-loaded dendritic cells were injected subcutaneously into naive F1 (H2^bxd) female mice. Mice were sacrificed 7 days post immunization. Peptide sequences: HF10: HPGSVNEFDF; ROP5: YAVANYFFL; GRA4: SPMNGGYYM.
Figure 1 Characteristics of the L^d-HF10 specific T cell response. (A) T. gondii-specific CD8 T cells were quantified by pMHC tetramer staining and flow cytometry of splenocytes at different time points after intraperitoneal infection of F1 (B6xB6.C) mice. Fold change between naive and expanded T cells was calculated using the average number of tetramer+ cells in each population in naive mice (GRA6 = 74.4, ROP5: 654.9, GRA4: 1330). (B) Flow cytometric analysis of size (FSC or forward scatter) or expression of activation and effector markers (CD71, KLRG1, and CD25) on gated tetramer^+ splenic CD8 T cells at day 5 post infection. (C) Mice were immunized with bone marrow-derived dendritic cells loaded with the indicated peptides. Expanded tetramer^+ CD8 T cells were quantified by tetramer staining of splenocytes 7 days post immunization (open circles). Numbers of tetramer^+ CD8 T cells in the spleen were quantified by tetramer enrichment of naïve mice and were used to calculate the fold expansion of each antigen-specific T cell population (closed circles). Statistical significance of differences in fold change between the three groups was calculated using Mann-Whitney tests. GRA6 vs. GRA4: p < 0.0001, GRA6 vs. ROP5: p < 0.0001, GRA4 vs. ROP5: p=0.0002. Statistical significance between tetramer+ T cell populations was calculated by two-way ANOVA. The interaction p-values are as follows: GRA6 vs. GRA4: p < 0.0001, GRA6 vs. ROP5: p < 0.0001, GRA4 vs. ROP5: p=0.99. (D) The frequency of Vβ2 usage amongst L^d-HF10 specific splenic CD8 T cells tetramer enriched from naïve mice or found in T. gondii-infected mice was determined by flow cytometry. […] Clonal diversity in L^d-HF10 specific CD8 T cells was analyzed using the TCRdist algorithm ([40]). […]

Substance	Fold expansion of tetramer+ CD8 T cells [x]
HPGSVNEFDF [HF10, 10mer peptide from the C-terminus of T. gondii protein GRA6, presented by MHC-I L^d]	4000
SPMNGGYYM [GRA4]	50
YAVANYFFL [ROP5]	300

What follows are substances tested against TG6 TCR, acid-base leucine zipper stabilized, soluble, biotinylated (mouse) (assay: SPR). Conditions: not given.

Substance	Kd [µM]
soluble L^d-HF10 (HF10 fused via a linker to β2m, disulfide-trapped), wild-type peptide (peptide-MHC)	0.42
soluble L^d-HF10 (L^d α1-α3 with HF10 fused via a linker to β2m, disulfide-trapped) (peptide-MHC)	0.4
soluble L^d-HF10 with alanine at peptide position 1 (peptide-MHC)	1.02
soluble L^d-HF10 with alanine at peptide position 2 (peptide-MHC)	1.84
soluble L^d-HF10 with alanine at peptide position 4 (peptide-MHC)	2.4
soluble L^d-HF10 with alanine at peptide position 5 (peptide-MHC)	1.85
soluble L^d-HF10 with alanine at peptide position 9 (peptide-MHC)	170

Each substance was assayed on TG6 TCR (assay: Surface plasmon resonance of L^d-HF10 (WT and alanine variants) binding to immobilised TG6 TCR). Conditions: SPR, BIAcore SA chip, ~2000 RU biotinylated TG6 TCR; soluble L^d-peptide injected; two-state reaction fit.
Parameters: species or system mouse
Description: We used two systems to generate L^d-HF10. For biophysical and crystallographic studies of pMHC, we produced soluble L^d-HF10 by baculovirus-infected insect cell expression ([26]). The DNA encoding L^d (α1-α3) and HF10 (or alanine substituted variants) fused via a linker to β2m were cloned into pbac plasmid under polyhedrin and p10 promoters to produce secreted soluble Ld-HF10 from Hi5 insect cells. In this construct, L^d Tyr 84 and Gly at peptide p12 position from the linker that attaches β2m to pHF10 were mutated to cysteines to form a disulfide bond ([27]). Secreted L^d-HF10 in insect cell medium was captured with immunoaffinity chromatography and further purified by GE Healthcare FPLC Superdex 200 10/300 GL size exclusion column. For the crystallography of the TCR/peptide/MHC ternary complex, we produced the wild type L^d variable region (α1-α2). L^d (α1-α2) was expressed in E. coli BL21 as an inclusion body, solubilized in 8M urea, and refolded with synthetic HF10 peptide (HPGSVNEFDF, ordered from Peptide 2.0 Inc.) ([28], [29]). Refolded L^d-HF10 was further purified with a HiLoad Superdex 200 26/600 size chromatography column.
TG6 α and β TCR chains were also produced by both baculovirus insect cell and bacterial expression systems. […]
Approximately 2000 RU of biotinylated TG6 TCR was captured in the flow cells of a BIAcore streptavidin (SA) BIAsensor chip. Various concentrations of insect cell-produced L^d-HF10 and its mutated variant peptides were injected into the sensor chip and the association and dissociation kinetics were recorded and then corrected for the fluid phase SPR signal using the data from the biotinylated mouse BDC2.5 TCR. Kinetics was analyzed with BIAcore BIAEval 4 software. […]
(A) Corrected surface plasmon resonance (SPR) data for the binding of various concentrations of soluble L^d-HF10 to ~2000 RU of biotinylated TG6 TCR immobilized in flow cell on SA sensor chip. […] Upregulation of surface CD25 and CD44 in response to TCR stimulation was measured by flow cytometry. […]

Substance	ka2 [s⁻¹]	kd1 [s⁻¹]	kd2 [s⁻¹]
HPGSVNEFDF [HF10, 10mer peptide from the C-terminus of T. gondii protein GRA6, presented by MHC-I L^d]	0.002	0.014	0.005

What follows are substances tested against H2-L^d on TAP-deficient RMA-S.L^d cells (assay: flow cytometry on cells (RMA-S.Ld surface Ld stabilisation)). Conditions: read at the highest peptide concentration, log [peptide in µM] = 0; parent: est. 670; read off a plot.

Substance	response [MFI]
HF10 peptide p1A	550
HF10 peptide p2A	100
HF10 peptide p3A	690
HF10 peptide p4A	720
HF10 peptide p5A	400
HF10 peptide p6A	440
HF10 peptide p7A	670
HF10 peptide p8A	120
HF10 peptide p9A	430
HF10 peptide p10A	60
